Article PMC5023229, “Role of NAD^+-Dependent Malate Dehydrogenase in the Metabolism of Methylomicrobium alcaliphilum 20Z and Methylosinus trichosporium OB3b” (Microorganisms, 2015)

B1: MDH from M. trichosporium OB3b (MDH-OB3b) (Methylosinus trichosporium OB3b) (protein)
chain: MARKKIALIGAGNIGGTLAHLIGLKELGDIVLFDIAAGVPQGKALDLAQSSPVSGFDATISGADDYSAIAGADVVIVTAGVPRQPGMSRDDLLSVNLGVVSKVGAGIKTYAPDAFVICITNPLDVMVWALQKCSGLPPAKVVGMAGVLDSARFRYFLAEELQVSVEDVSAFVLGGHGDDMVPSVRYSTVAGVPLPDLVGMGWITQAKIDAIVERTRKGGGEIVSLLKTGSAYYAPAASAIAMAESYLKDKRRVLPCAAHLSGQYGVSDLYVGVPVVIGANGVERIVEISLDSAERQMFDKSVASVRTLIAASKALDPSFA
notes: full-length, C-terminal His6 (pET22b NdeI/XhoI), E. coli BL21 (DE3), Ni-NTA; homotetramer 140 kDa; forward primer encodes (M)MARKKIA; LDH-like MDH, group III
B2: MDH from M. alcaliphilum 20Z (MDH-20Z) (Methylotuvimicrobium alcaliphilum 20Z) (protein)
chain: MKTPVKIAVTGAAGQISYSLLFRLASGELLGPDQPMIFHLLETPQALALGALNGVVMELNDCAYPLLHKIVTTDDPDVAFKDVDYAFLIGASPRKPGMERKDLLAINAQIFSVQGQALSKVASRDVKVLVTGNPANTNALIAISNAPDLRPENFSAMMMLDHKRATFQLADKCGVLSNDIKNIIIWGNHSAGQYPDLHHAKVKGQDALSLVEWDWFVDKFIPTVQQRGAVVIQAVGRSSAASAANAALNLMRNWVFGTDEGNWISMAVPSDGSYGIEKDLVYSFPVEIKNGEISIVQGLEISDFSREKMRKSEAELKEEREAVKHLL
notes: full-length, C-terminal His6 (pET22b NdeI/XhoI), E. coli BL21 (DE3), Ni-NTA; homodimer 70 kDa

Key:
Assay in all cases: purified protein
purified protein [1] = substrate: O=C(O)C[C@H](O)C(=O)O; settings: malate oxidation, co-substrate NAD+
purified protein [2] = substrate: NC(=O)C1=CN([C@@H]2O[C@H](COP(=O)(O)OP(=O)(O)OC[C@H]3O[C@@H](n4cnc5c(N)ncnc54)[C@H](O)[C@@H]3O)[C@@H](O)[C@H]2O)C=CC1; format: biochemical, Methylosinus trichosporium; settings: oxaloacetate reduction, co-substrate oxaloacetate, pH 9.5, 30 °C, varied: cofactor
purified protein [3] = substrate: NC(=O)c1ccc[n+]([C@@H]2O[C@H](COP(=O)(O)OP(=O)(O)OC[C@H]3O[C@@H](n4cnc5c(N)ncnc54)[C@H](O)[C@@H]3O)[C@@H](O)[C@H]2O)c1; format: biochemical, Methylosinus trichosporium; settings: malate oxidation, co-substrate malate, pH 9.5, 30 °C, varied: cofactor
purified protein [4] = substrate: O=C(O)CC(=O)C(=O)O; format: biochemical, Methylosinus trichosporium; settings: oxaloacetate reduction, co-substrate NADH, pH 9.5, 30 °C
purified protein [5] = substrate: NC(=O)C1=CN([C@@H]2O[C@H](COP(=O)(O)OP(=O)(O)OC[C@H]3O[C@@H](n4cnc5c(N)ncnc54)[C@H](O)[C@@H]3O)[C@@H](O)[C@H]2O)C=CC1; format: biochemical, Methylotuvimicrobium alcaliphilum; settings: oxaloacetate reduction, co-substrate oxaloacetate, pH 10, 30 °C, varied: cofactor
purified protein [6] = substrate: NC(=O)c1ccc[n+]([C@@H]2O[C@H](COP(=O)(O)OP(=O)(O)OC[C@H]3O[C@@H](n4cnc5c(N)ncnc54)[C@H](O)[C@@H]3O)[C@@H](O)[C@H]2O)c1; format: biochemical, Methylotuvimicrobium alcaliphilum; settings: malate oxidation, co-substrate malate, pH 10, 30 °C, varied: cofactor
purified protein [7] = substrate: O=C(O)CC(=O)C(=O)O; format: biochemical, Methylotuvimicrobium alcaliphilum; settings: oxaloacetate reduction, co-substrate NADH, pH 10, 30 °C

| Protein | Km (purified protein [1]; pH 9.5, 30 °C, pH 9.5) | kcat (purified protein [1]; pH 9.5, 30 °C, pH 9.5) | Km (purified protein [2]) | Km (purified protein [3]) | Km (purified protein [4]) | kcat (purified protein [4]) | Km (purified protein [1]; pH 10, 30 °C, pH 10.0) | kcat (purified protein [1]; pH 10, 30 °C, pH 10.0) | Km (purified protein [5]) | Km (purified protein [6]) | Km (purified protein [7]) | kcat (purified protein [7]) |
| --- | --- | --- | --- | --- | --- | --- | --- | --- | --- | --- | --- | --- |
| B1 | 1.28 ± 0.17 mM | 516 s⁻¹ | 0.0376 ± 0.0046 mM | 0.33 ± 0.04 mM | 0.059 ± 0.007 mM | 1141 s⁻¹ |  |  |  |  |  |  |
| B2 |  |  |  |  |  |  | 0.11 ± 0.01 mM | 621 s⁻¹ | 0.0252 ± 0.0004 mM | 0.45 ± 0.08 mM | 0.34 ± 0.03 mM | 870 s⁻¹ |
